{"source": "paper PMC10881042", "key": {"[1]": {"molecular_target": "PKA type II regulatory subunit RIIα, in H295R adrenal cells (UniProt P13861)", "sequence (P13861 whole entry, stated change not applied)": "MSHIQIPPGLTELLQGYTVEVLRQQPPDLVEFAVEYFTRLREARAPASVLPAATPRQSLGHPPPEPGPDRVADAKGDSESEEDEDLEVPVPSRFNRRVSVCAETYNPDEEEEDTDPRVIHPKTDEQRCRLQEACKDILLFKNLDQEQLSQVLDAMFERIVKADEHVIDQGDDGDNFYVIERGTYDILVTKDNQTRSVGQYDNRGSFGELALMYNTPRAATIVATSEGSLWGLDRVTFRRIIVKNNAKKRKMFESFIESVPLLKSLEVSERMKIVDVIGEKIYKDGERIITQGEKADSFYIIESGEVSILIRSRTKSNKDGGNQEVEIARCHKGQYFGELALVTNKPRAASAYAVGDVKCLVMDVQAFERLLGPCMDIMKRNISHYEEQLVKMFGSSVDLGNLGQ"}, "[2]": {"molecular_target": "PKA type I regulatory subunit RIα, in H295R adrenal cells (human (endogenous in H295R)) (UniProt P10644)", "sequence (P10644 whole entry, stated change not applied)": "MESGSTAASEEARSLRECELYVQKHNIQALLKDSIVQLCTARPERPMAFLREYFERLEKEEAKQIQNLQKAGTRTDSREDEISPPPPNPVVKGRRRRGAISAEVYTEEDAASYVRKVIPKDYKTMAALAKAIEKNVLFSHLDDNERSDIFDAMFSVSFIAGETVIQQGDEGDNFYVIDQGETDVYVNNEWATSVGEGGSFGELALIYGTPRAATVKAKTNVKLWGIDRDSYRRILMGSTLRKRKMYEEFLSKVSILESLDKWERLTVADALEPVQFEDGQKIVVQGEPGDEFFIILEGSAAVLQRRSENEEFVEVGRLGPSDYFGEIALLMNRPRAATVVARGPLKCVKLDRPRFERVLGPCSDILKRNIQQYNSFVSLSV"}}}
{"substance": "V5-tagged PKAc-W196R, in H295R adrenal cells (enzyme)", "values": [{"measurement": "residence of photoactivatable-mCherry PKAc at the site of photoactivation after 12.5 s in H295R cells with AKAP79-YFP and RIIα-iRFP", "setting": "[1]", "value": 30, "unit": "%"}, {"measurement": "residence of photoactivatable-mCherry PKAc at the site of photoactivation after 12.5 s in H295R cells with smAKAP-GFP and RIα-iRFP", "setting": "[2]", "value": 40, "unit": "%"}]}
